From paper PMC5740061 (Nature Communications, 2017) come the findings set out here.

To fix the notation:
B1: SDGF-TB1G1 (TB1G1 displayed on 293F cells) [designed binder] / Biotinylated His-Avi-TEAD1(194–411) [modified: biotin (BirA-500 kit); biotin (BirA-500 kit)] [not stated] (parent complex)
chain 1: PDEYIERAKECCKKGDIQCCLRYFEESGDPNVMLICLFCP
chain 2: RSIGTTKLRLVEFSAFLEQQRDPDSYNKHLFVHIGHANHSYSDPLLESVDIRQIYDKFPEKKGGLKELFGKGPQNAFFLVKFWADLNCNIQDDAGAFYGVTSQYESSENMTVTCSTKVCSFGKQVVEKVETEYARFENGRFVYRINRSPMCEYMINFIHKLKHLPEKYMMNSVLENFTILLVVTNRDTQETLLCMACVFEVSNSEHGAQHHIYRLVKD

Variants of B1 are the subject of the test. As to the kind of experiment: mammalian (293F) surface display of a site-saturation mutagenesis library (every non-Cys single substitution), FACS sorting on biotinylated TEAD1 YBD, two sorting rounds, Illumina sequencing with perfect-match mapping; 20 nM biotinylated TEAD, monovalent 2-step stain (TEAD alone 30 min at 4 °C, dilute, pellet, then 20 nM streptavidin-Alexa Fluor 647), flow sorting on a BD Aria.
As for chain 1 A8W, the enrichment was -5.46 log2 (fold change of variant abundance after two TEAD sorts vs input, normalised to TB1G1).
As for chain 1 A8Y, the figure is -3.35 log2 (fold change of variant abundance after two TEAD sorts vs input, normalised to TB1G1); as for chain 1 A8F, -4.33 log2 (fold change of variant abundance after two TEAD sorts vs input, normalised to TB1G1).
Then chain 1 E6D, with -0.602 log2 (fold change of variant abundance after two TEAD sorts vs input, normalised to TB1G1).
As to chain 1 E6N, the enrichment was -0.816 log2 (fold change of variant abundance after two TEAD sorts vs input, normalised to TB1G1).
As for chain 1 E6K, the figure is -1.13 log2 (fold change of variant abundance after two TEAD sorts vs input, normalised to TB1G1); as for chain 1 E6R, -1.78 log2 (fold change of variant abundance after two TEAD sorts vs input, normalised to TB1G1).
As for chain 1 P1L, the figure is -2.9 log2 (fold change of variant abundance after two TEAD sorts vs input, normalised to TB1G1); as for chain 1 P1V, -0.595 log2 (fold change of variant abundance after two TEAD sorts vs input, normalised to TB1G1).
Then chain 1 D2H, with -1.05 log2 (fold change of variant abundance after two TEAD sorts vs input, normalised to TB1G1); and chain 1 D2T, with -0.52 log2 (fold change of variant abundance after two TEAD sorts vs input, normalised to TB1G1); and chain 1 D2F, with -3.41 log2 (fold change of variant abundance after two TEAD sorts vs input, normalised to TB1G1).
As for chain 1 K9D, the enrichment is -0.576 log2 (fold change of variant abundance after two TEAD sorts vs input, normalised to TB1G1).
Then chain 1 K9H, with -1.5 log2 (fold change of variant abundance after two TEAD sorts vs input, normalised to TB1G1).
As for chain 1 I5K, the figure is -1.5 log2 (fold change of variant abundance after two TEAD sorts vs input, normalised to TB1G1).
Then chain 1 I5A, with -1.2 log2 (fold change of variant abundance after two TEAD sorts vs input, normalised to TB1G1).
In the case of chain 1 I5S, the enrichment is -2.04 log2 (fold change of variant abundance after two TEAD sorts vs input, normalised to TB1G1).
As for chain 1 Y4D, the figure is -1.79 log2 (fold change of variant abundance after two TEAD sorts vs input, normalised to TB1G1).
As for chain 1 Y4L, the figure is -1.81 log2 (fold change of variant abundance after two TEAD sorts vs input, normalised to TB1G1).
Then chain 1 Y4Q, with 0.291 log2 (fold change of variant abundance after two TEAD sorts vs input, normalised to TB1G1).
Consider chain 1 E3N, for which the enrichment is 0.579 log2 (fold change of variant abundance after two TEAD sorts vs input, normalised to TB1G1).
As for chain 1 E3K, the figure is -0.5 log2 (fold change of variant abundance after two TEAD sorts vs input, normalised to TB1G1); as for chain 1 E3W, -1.4 log2 (fold change of variant abundance after two TEAD sorts vs input, normalised to TB1G1).
As to chain 1 R7L, the enrichment was -0.388 log2 (fold change of variant abundance after two TEAD sorts vs input, normalised to TB1G1).
As for chain 1 R7E, the figure is -0.163 log2 (fold change of variant abundance after two TEAD sorts vs input, normalised to TB1G1).
